This note sets out measurements from the supplement of paper PMC7125110.

± gives the standard error. Fewer inactive variants are shown than the library holds.

B1: glmS ribozyme (parent)
chain: AUAAAAGCGCCAGAACUACAGAAAUGUAGUUGACGAGGAGGAGGUUUAUCGAAUUUUCGGCGGAUGCCUCCAAA

One series covers variants of B1. The experiment in a line: self-cleavage kobs at 2500 uM GlcN6P; higher = faster cleavage; RNA array. The conditions noted are these: with glucosamine-6-phosphate. An outline of the steps: (§1)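 A hybridised Cy3 probe tracked barcoded ribozyme variants, transcribed in situ by E. coli RNA polymerase on sequenced MiSeq chips, at 37 °C. The variants received 40 μM to 10 mM glucosamine-6-phosphate in HEPES/KCl/Mg(OAc)2 buffer. kobs came from decay fits and kcat and KM from weighted Michaelis–Menten fits.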
As for AUAAAAGCGCCAGAACUACAGAAAUGUAGUUUACGAGUAGGAGGUUUAUCGAAUUUUCGGCGGAUGUCUCCAAA [G32U G38U C67U], the “self-cleavage kobs at 2500 uM GlcN6P” value was under 1e-05 s⁻¹.
For AUAAAAGCCCAAGAACUACAGAAAUGUAGUUGACGAGGAGGAGGUUUAUCGAAUUUUCGGCGCAUGCCUCCAAA [G9C C11A G63C], the “self-cleavage kobs at 2500 uM GlcN6P” value was under 1e-05 s⁻¹.
Regarding AUAAAAGCGCCCGAACUACAGAAAUGUAGUCGACGAGGAGGAGGUUUAUCGAAUUCUCGGCGGAUGCCUCCAAA [A12C U31C U56C], the “self-cleavage kobs at 2500 uM GlcN6P” value came to 0.000204 ± 6.7e-05 s⁻¹.
In the case of AUAAAAGCGCUAGCACUACAGAAAUGUAGUUGACGAGGUGGAGGUUUAUCGAAUUCUCGGCGGAUGCCUCCAAA [C11U A14C A39U U56C], the “self-cleavage kobs at 2500 uM GlcN6P” value turned out to be 7.9e-05 ± 2.4e-05 s⁻¹.
The same measure, in the same setting: the value for AUAAAAGCGCCAGAAAUACAGAAAUGUAGUUAACGAUGAGGAGGUUUAUCGAAUUUUCGGCGGAUGCCUCCAAA [C16A G32A G37U] was under 1e-05 s⁻¹.
On the same count and under the same terms, the value for AUAAAGGCGCCAGAACUACAGAAAUGUAGUUGACGAGGAGGGGGUUUAUCGAAUUUUCGGCGGAUGUCUUCAAA [A6G A42G C67U C70U] was under 1e-05 s⁻¹.
The same measure, in the same setting: under AUAAAAGCGUCAAAACUACAGAAAUGUAGUUGUCGAGGAGGAGGUUUAUCGAAUUUUCGGCGGAUGCCUCCAAA [C10U G13A A33U] stands under 1e-05 s⁻¹; under AUAAAAGCGCUAGAACUACAGAAAUGUAUUUGACGAGGAGGAGGUUUAUCGAAUUUUCGGCGGAUGGCUCCAAA [C11U G29U C67G], 0.000197 ± 6.6e-05 s⁻¹; under AUAAAAGCGCCAGAACUACAGAAAUGUAGUUGACAAGGAGGAGGUUUAUAGAAUCUUCGGCAGUUGCCUCCAAA [G35A C50A U55C G62A A64U], under 1e-05 s⁻¹.
As for AUAAAAGCGCCAAAACUACAGAAAUGUAGAUGACGAGGAGGAGGUUUAUCGAAUUUUAGGCGGAUGCCUCCAAA [G13A U30A C58A], the “self-cleavage kobs at 2500 uM GlcN6P” value was 0.000138 ± 3.4e-05 s⁻¹.
Take AUAAAAGCGCCAGAACUACAGAAAUGUAGUUGACGAAGAGGAGGUUUAGCGAAUUUUCGGCGGAUGCCUUCAAA [G37A U49G C70U]: the “self-cleavage kobs at 2500 uM GlcN6P” value stood at 7.97e-05 ± 2e-05 s⁻¹.
Consider AUAAAAGCGCCAGAACUACAGAAAUGUACGUGACGAGGGGGAGGUUUAUCGAAUUUUCGGCGGAUGCCUCCAAA [G29C U30G A39G], for which the “self-cleavage kobs at 2500 uM GlcN6P” value is 0.00224 ± 0.00066 s⁻¹.
Same read-out and setting: under AUAAAAGCGCCGGAACUACAGAAAUGUAUUUGACGAGGAGGAGGUUGAUCGAAUUUUCGGCGGAUGCCUCCAAA [A12G G29U U47G] stands 6.74e-05 ± 1.5e-05 s⁻¹; under AUAAAAUCGCCAGAACUACAGAAAUGUAGUUGACUAGGAGGAGGUUUAUCGAACUUUCGACGGAUGGAUCCAAA [G7U G35U U54C G60A C67G C68A], 5.54e-05 ± 9.5e-06 s⁻¹; under AUAAAAGCGCCUGAACUACAGAAAUGUAGUUGAAGAGGAGGAGGUUUUUCGAAUUUUCGGCGGAUGCCUCCAAA [A12U C34A A48U], under 1e-05 s⁻¹.
Still for that read-out and setting: the value for AUAAAAGCGCCAGAACUACAGAAAUGUAGUUGACGAUGAGGAGGUGUAUCGUAUUUACGGCGGAUGCCUCCAAA [G37U U46G A52U U57A] was under 1e-05 s⁻¹.
AUAAAAGCGCCUGAACUACAGAAAUGUAGUGGACGAGGAGGAGGUUUAUCGAAUUUUGGGCGGAUGCCUCCAAA [A12U U31G C58G]: the “self-cleavage kobs at 2500 uM GlcN6P” value amounted to 7.42e-05 ± 2.7e-05 s⁻¹.
Same read-out and setting: the value for AUAAAAGCUCCAGAACUACAGAAAUGUAGAUGACGAGAACGAGGUUUAUCGAAUUAUCGGCGGAUGCCUACAAA [G9U U30A G38A G40C U56A C70A] was under 1e-05 s⁻¹; that for AUAAAAGCGCCACAACUACAGAAAUGUAGUAGACGAGGAGGAGGUUUAUCGAGUUUUCGGCGGAUGCCUCCAAA [G13C U31A A53G] was 0.000107 ± 3.6e-05 s⁻¹; that for AUAAAAGCGCCUGAACUACAGAAAUGUAGUUGACGAGGAGGAGGUUUUUCGAAUUUUCGGCGGAUGCCUGCAAA [A12U A48U C70G] was 0.000115 ± 5e-05 s⁻¹.
Still for that read-out and setting: under AUAAAAGCGCCACAACUACAGAAAUGUAGUUGACGAGGAGGAGGUUUAUCGAAUUUUCGGAGGAUGCGUCCAAA [G13C C61A C68G] stands under 1e-05 s⁻¹; under AUAAAAGCACCAUAACUACAGAAAUGUAGUUGACGAGGAGGAGGUUUAUCGAAUUUCCGGCGGAUGCCUCCAAA [G9A G13U U57C], under 1e-05 s⁻¹.
On the same count and under the same terms, the value for AUAAAUGUGCCAGAAUUACAGAAAUGUAGCUGACGAGGAGGAGUUUUAUCGAAUAUUCGGCGGAUGGCUCCAAA [A6U C8U C16U U30C G44U U55A C67G] was under 1e-05 s⁻¹; that for AUAAAGGCGCCGGAACUACAGAAAUGUAGUUGUCGCGGAGGAGGUUUAUCGAAUUUUCGGCGGAUGCCUCCAAA [A6G A12G A33U A36C] was under 1e-05 s⁻¹; that for AUAAAAGUGCCAGAACUACAGAAAUGUAGUUGACGAGGAGGAGGUUUAUCGAAUUUUCGUCGGAUGCCUGCAAA [C8U G60U C70G] was under 1e-05 s⁻¹.
On to AUAAAGGCGCCUGAACUACAGAAAUGUAGUUGACGAGGAGGAGGUUUAUCGAAUUUUCGGCGGAUGUCUCCAAA [A6G A12U C67U], for which the “self-cleavage kobs at 2500 uM GlcN6P” value stood at 0.000919 ± 0.00023 s⁻¹.
On the same count and under the same terms, the value for AUAAAAGCGCCAGAACUACAGAAAUGUAGUUGACUAGGAGGAGGUUUAUCGAAUUUUCGGCGGAUUCCUUCAAA [G35U G66U C70U] was under 1e-05 s⁻¹.
Same read-out and setting: under AUAAAGGCGCCAGAACUACAGAAAUGUAGUUCACGAGGAGGAGGUUUAUCGAAUUUUCGGCGGAUGUCUCGAAA [A6G G32C C67U C71G] stands under 1e-05 s⁻¹; under AUAAAAAGCCCAGACCUACAGAAAUGUAGUUGACGAGGAGGAGGUUGAUCGAAUUUUCGGCGGAUGCCUCAAAA [G7A C8G G9C A15C U47G C71A], under 1e-05 s⁻¹; under AUAAAAGCGCCAGAACUACAGAAAUGUAGUUGUCGAGGAGGAGGUUUAUCGAGUUUUCGGCCGACGCCUCCAAA [A33U A53G G62C U65C], under 1e-05 s⁻¹.
The same measure, in the same setting: under AUAAAAGCGCCAGAACUACAGAAAUGUAGUUGACGAGGACGAGGUUAAUCGAAUUUUCGGCGGAGGCCUCCAAA [G40C U47A U65G] stands 0.000652 ± 0.00017 s⁻¹; under AUAAAGGCGCCAGAAUUACAGAAAUGUACUUGACGAGGAGGAGGUUUAUCGAAUUUUCGGCGGAUGCCUCCAAA [A6G C16U G29C], 6.69e-05 ± 2e-05 s⁻¹.

Another series covers variants of B1. Nature of the series: self-cleavage kobs at 10000 uM GlcN6P; higher = faster cleavage; RNA array. The conditions noted are these: with glucosamine-6-phosphate. In a few lines: as §1
In the case of AUAAAAGCGCCAGAACUACAGAAAUGUAGUUGACAAGGAGGAGGUUUAUAGAAUCUUCGGCAGUUGCCUCCAAA [G35A C50A U55C G62A A64U], the “self-cleavage kobs at 10000 uM GlcN6P” value is under 1e-05 s⁻¹.
In the case of AUAAAAGCUCCAGAACUACAGAAAUGUAGAUGACGAGAACGAGGUUUAUCGAAUUAUCGGCGGAUGCCUACAAA [G9U U30A G38A G40C U56A C70A], the “self-cleavage kobs at 10000 uM GlcN6P” value is under 1e-05 s⁻¹.
The same measure, in the same setting: under AUAAAAGCGCCACAACUACAGAAAUGUAGUAGACGAGGAGGAGGUUUAUCGAGUUUUCGGCGGAUGCCUCCAAA [G13C U31A A53G] stands 0.000294 ± 5.7e-05 s⁻¹.
Consider AUAAAAGCACCAUAACUACAGAAAUGUAGUUGACGAGGAGGAGGUUUAUCGAAUUUCCGGCGGAUGCCUCCAAA [G9A G13U U57C], for which the “self-cleavage kobs at 10000 uM GlcN6P” value was under 1e-05 s⁻¹.
Take AUAAAGGCGCCAGAAUUACAGAAAUGUACUUGACGAGGAGGAGGUUUAUCGAAUUUUCGGCGGAUGCCUCCAAA [A6G C16U G29C]: the “self-cleavage kobs at 10000 uM GlcN6P” value came out at 6.83e-05 ± 1.6e-05 s⁻¹.
